Measured values taken from the supplement of paper PMC10567573.

B1: SLC35F2 (parent)
chain: FVAFALCMFCLYSFMPLVIKVTSA
B2: CHMP4C (parent)
chain: SSKSRAAPSPQEALVRLRETEEML

Variants of: B1
Assay: protein stability index of a GFP-peptide fusion (GPS, HEK-293T) (PSI 1-6); higher = more stable
Settings: c terminus: a fixed tail appended
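Also: lentivirally expressed fusions sorted by FACS into six bins by GFP to DsRed ratio, PSI derived from sequencing read proportions per bin multiplied by bin number.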

Protein stability index, by site and new letter:
M8: H 2.8; A 3.8; F 2.67; G 1.97; E 3.62; I 2.88; D 2.12; L 2.67; K 2.51; C 2.4
F4: T 3.63; M 2.64; R 3.58; N 4.39; V 3.37; K 2.01; I 2.65; C 2.52; L 4.33; D 4.88; G 2.87; P 4.46; A 2.54; E 3.18; Y 2.33; W 3.22; H 2.26; Q 2.23
F1: R 4.03; I 3.76; M 2.59; T 2.5; Q 3.03; Y 2.99; N 3.06; E 3.64; L 3.61; G 3.04; H 3.02; A 2.36; K 2.5; P 2.61; V 2.51; D 2.71; W 2.65; C 2.46
A5: N 1.4; L 2.47; H 2.52; K 2.58; W 3.11; R 2.84; Y 2.58; D 3.05; M 2.38; E 2.48; F 1.59; P 2.62; S 3.44; C 2.67; V 2.75; I 3.68
C7: K 2.46; I 2.35; P 1.95; F 2.43; V 3.59; R 3.23; M 3.58; N 4.12; Q 3.11; W 2.19; Y 2.85; H 3.27; S 3.35; T 2.6; L 2.99; A 2.45; E 2.19; D 3.08
A3: I 2.84; H 2.44; W 2.55; E 2.62; P 1.98; V 3.02; T 2.21; D 2.37; S 2.81; L 2.38; M 2.65; N 2.43; F 2.64; Y 3.12; R 3.31; C 2.05; K 2.42
V2: K 2.97; T 4.03; D 2.14; N 3.7; I 4.37; Q 2.65; R 2.37; C 2.5; W 2.44; A 2.72; E 2.27; L 3.45; P 3.21; S 2.71; F 2.7; G 3.29
L6: S 3.91; N 3.13; C 2.33; D 3.24; H 3.22; G 2.14; E 2.43; Y 3.21; P 2.79; I 2.5; V 2.13; Q 3.48; T 2.16; F 2.84; K 2.38; W 3.52; A 2.8

Variants of: B2
Assay: as above
Settings: c terminus: a fixed tail appended

Protein stability index, by site and new letter:
V15: Q 3.07; P 4.34; S 2.18; M 2.17; D 1.85; K 2.48
R18: K 2.15; E 4.89; Y 2.45; F 1.83; Q 2.57; L 4.8; H 5.68; P 5.12; N 1.8; S 2.17; D 5.46; A 1.51
T20: W 3.45; Q 4.83; D 2.08; I 3.27; V 3.14; C 4.19; P 5.12
E19: Q 1; Y 1.97; I 4.1; N 2.27; K 3.19; P 4.63; W 2.36; H 2.9; C 2.66; A 2.6; R 3.52; S 3.01; G 2.44
P10: T 4.26; E 3.41; W 1.67; R 4.01; Y 2.99; K 4.6; N 4.79; C 3.05; H 4.21; Q 4.58; S 3.85; V 1.81
L24: S 4.53; H 4.37; Q 5.69; T 3.92; D 5.37; M 3.11; N 5.32; G 4.97; Y 3.64; R 4.22; E 5.94; I 2.52; F 4.25; W 3.92
R5: L 1.48; D 2.36; G 1.3; C 1.78; T 2.17
E21: Q 3.95; A 4.28; G 3.63; N 4.49; M 4.23; S 4.09; W 2.39; D 4; F 3.21; Y 2.3; I 2.83; T 2.81
S9: A 2.38; V 3.85; R 3.19; C 1.54; T 1.94; I 3.22; D 1.51
E12: H 3.06; S 2.06; C 2.96; G 2.23; V 2.81; L 3.27; K 4.3; W 2.67; M 2.05; F 2.75
E22: T 3.01; W 1.71; V 2.84; M 1.82; D 2.14; Q 2.31; F 2.05; I 2.92; G 2.44; P 4.66
L14: C 2.06; D 4.96; I 2.32; W 1.42; K 4.46; Y 2.49; R 2.92; A 3.39; S 4.33; T 4.6; P 5.2; H 4.46; V 3; M 2.41; F 4.77
A13: Q 4.8; Y 2.3; H 3.99; K 4.47; D 5.58; G 3.34; W 3.33; C 1.82; L 2.06
S1: V 3.02; N 2.38; H 1.97; E 1.3
K3: A 1.97; W 1.74; T 1.79; D 3.17
S2: E 1.86; T 1.78; A 2.44; C 2.38
A6: R 1.96; N 1.61; F 2.83; K 1.8; H 1.28; D 1.81; I 2.15; Y 4.65
M23: S 3.95; A 2.07; P 4.44; T 3.55; Q 2.38; W 1.55; Y 1.41; H 4.34; E 2.08; F 2.24; K 2.15; D 4.26
R16: E 2.24; G 3.79; T 4.39; Q 2.49; Y 2.22; H 1.63; D 1.98; W 2.45
A7: P 1.03; Q 2.32; M 3.21; V 2.56; T 4.48; K 1.45
S4: T 2.58; D 1.4
P8: L 2.46; C 1.87; Q 1.95; V 4; N 2.54; W 2.56
L17: I 1.76; H 4.79; F 4.28; S 5.01; A 4.71; N 4.59; E 5.68; G 5.31; Y 4.4; R 5.53; T 5.6
Q11: V 3.06; A 2.68; T 1.16; P 3.7; F 1.01; C 1.78; K 1.9
